Test results as given in US20240269256A1 (HDT BIO, published 2024).

Target: enterovirus D68 clade B2 virus (enterovirus D68)
Assay: cell-based or functional assay

B1: AAA_G12 anti-EV-D68 VHH (recombinant VHH G12) (VHH)
VHH: QVQLVESGGGLVQPGGSLRLSCLASGITFTVYRMAWYRQAPGRQRDLVAEVAPGGGTVAANSVKGRFTISRDSAKNTVDLQMNDLKPDDTAVYYCYARNLFTSGEYWGQGTQVTVSS
- 50% inhibitory concentrations (IC50), neutralization by real time cell analysis (RTCA) assay: ~1 nM
